# Measured values reported in US20200109196A1 (MOGAM INSTITUTE FOR BIOMEDICAL RESEARCH, published 2020).
# T1: recombinant human CEACAM-1/CD66a protein (R&D systems; Cat. No. 2244-CM) (human, UniProt P13688 35-428)
# T1 construct: Bought protein; captured on anti-His (His1K) biosensors in the Octet assay, so it carries a His tag; also called HCCM1; recombinant CEACAM-1/CD66a protein
# T1 sequence (looked up): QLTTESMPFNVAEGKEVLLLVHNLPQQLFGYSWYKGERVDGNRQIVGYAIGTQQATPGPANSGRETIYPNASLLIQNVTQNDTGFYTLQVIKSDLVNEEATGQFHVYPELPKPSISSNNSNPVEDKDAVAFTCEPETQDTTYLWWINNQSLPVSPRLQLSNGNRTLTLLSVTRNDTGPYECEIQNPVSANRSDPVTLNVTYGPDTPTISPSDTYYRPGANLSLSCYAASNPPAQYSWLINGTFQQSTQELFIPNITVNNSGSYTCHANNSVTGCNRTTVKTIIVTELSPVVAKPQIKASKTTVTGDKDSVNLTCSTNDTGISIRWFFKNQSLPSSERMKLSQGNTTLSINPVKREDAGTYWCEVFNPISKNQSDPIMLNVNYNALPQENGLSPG
# T2: mCCM1
# T2 construct: also called mouse CCM1; mouse CEACAM1/CD66a protein (Sino Biological); not shown: the vendor's polyhistidine tag
# T2 chain: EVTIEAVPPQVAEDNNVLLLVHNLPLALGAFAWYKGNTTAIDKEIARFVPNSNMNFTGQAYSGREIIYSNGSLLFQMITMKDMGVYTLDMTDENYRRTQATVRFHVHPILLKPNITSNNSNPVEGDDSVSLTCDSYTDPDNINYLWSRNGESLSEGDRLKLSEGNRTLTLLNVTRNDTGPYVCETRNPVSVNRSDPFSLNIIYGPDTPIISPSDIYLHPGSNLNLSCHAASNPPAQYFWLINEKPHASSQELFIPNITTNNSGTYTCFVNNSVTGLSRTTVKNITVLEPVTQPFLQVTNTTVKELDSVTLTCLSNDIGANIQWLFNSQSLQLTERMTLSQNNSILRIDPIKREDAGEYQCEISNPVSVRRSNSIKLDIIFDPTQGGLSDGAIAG
# Key:
# [1] = molecular target: T1, recombinant human CEACAM-1/CD66a …; assay: Octet QKe biolayer interferometry, anti-His (HIS1K) biosensors, antibody 6.25-400 nM
# Protocol: The last well in each row was with a sample at the antibody concentration of 0 nM. Recombinant human CEACAM1 protein (R&D Systems; Cat. No. 2244-CM) was diluted to obtain a concentration of […], and dispensed into each well of another column at 200 μl/well.
# As for the washing buffer, neutralization buffer and baseline buffer, Reagent/Kinetics buffer (10×) (Fortebio; Cat. No. 18-1092) were 1:10 diluted and dispensed into each well of a column in a row at 200 μl/well, and the regeneration buffer was dispensed into each well at 200 μl/well. Greiner 96-well plate was separately prepared, Reagent/Kinetics buffer (1×) was dispensed into each well of the number of biosensors to be used in a row at 200 μl/well, and Biosensors/Anti-His (His1K) (Fortebio; Cat. No. 18-5120) cassette was installed.
# BSA = molecular target: T3, BSA (bovine, UniProt P02769); assay: ELISA on coated antigen (0.25 µg/ml), HRP anti-human IgG Fc, OD450
# T3 construct: blank antigen; also called BSA protein; bovine serum albumin
# Description: (§1) All of the recombinant human CEACAM-1/CD66a protein (R&D systems; Cat No. 2244-CM, HCCM1), recombinant human CEACAM-5/CD66e protein (R&D systems; Cat. No. 4128-CM, HCCM5), recombinant human CEACAM-6/CD66c protein (R&D systems; Cat. No. 3934-CM, HCCM6), recombinant human CEACAM-3/CD66d protein (Sino Biological; Cat. No. 11933-H08H, HCCM3), human B7-H5/Gi24/VISTA protein (Sino Biological; Cat. No. 13482-H08H, HVISTA), recombinant human CEACAM-1/CD66a protein Bulk (R&D systems; Cat. No. 2244-CM, HCCM1 (bulk)), recombinant human CEACAM1-N domain-Kappa protein (Mogam, in-house production, HCCM1-N domain-kappa), and BSA protein (2.5 μg each) were dissolved in 10 ml of PBS, respectively, and dispensed into a 96-well plate at 100 μl/well, which was incubated at 4° C. overnight. Thereafter, each well was treated with 300 μl of 1% (v/v) bovine serum albumin, and incubated at 37° C. for 1 hour.
# (§2) The diluted antibodies were dispensed into each well coated with each protein at 100 μl/well, and incubated at 37° C. for 1 hour. Then, each well was washed 3 times with a washing buffer prepared by diluting 10 μl of Tween 20 (Sigma-Aldrich; Cat. No. P9146) in 990 μl of PBS. Thereafter, 2 μl of HRP-conjugated human anti-IgG-Fc antibody (anti-human IgG Fc, Sigma Cat. No. A0170) was diluted in 10 ml of PBS, added to the wells at 100 μl/well, and incubated for 1 hour.
# (§3) After completion of the reaction, the wells were washed three times with the washing buffer, and 100 μl of TMB solution was added to each well to induce color development. Then, 100 μl of 2 M H₂SO₄ was added to each well to stop the reaction, and the absorbance was measured at a wavelength of 450 nm.
# HVISTA = molecular target: T4, HVISTA; assay: as above
# T4 construct: unrelated control antigen; also called human B7-H5/Gi24/VISTA protein (Sino Biological; Cat. No. 13482-H08H); not shown: the vendor's polyhistidine tag
# Description: as §1, §2, §3
# mCCM1 = molecular target: T2, mCCM1; assay: ELISA on coated antigen (0.25 µg/ml), HRP anti-human IgG Fab, OD450
# Description: All of the recombinant human CEACAM-1/CD66a protein (R&D systems; Cat. No. 2244-CM, HCCM1), recombinant human CEACAM-5/CD66e protein (R&D systems; Cat. No. 4128-CM, HCCM5), recombinant human CEACAM-6/CD66c protein (R&D systems; Cat. No. 3934-CM, HCCM6), recombinant human CEACAM-3/CD66d protein (Sino Biological; Cat. No. 11933-H08H, HCCM3), recombinant mouse PD-1 Fc chimeric protein (R&D systems; Cat. No. 1021-PD, mPD-1-Fc), recombinant CEACAM1-Fc (IgG4) protein (Mogam, in-house production, HCCM1-Fc), recombinant human CEACAM-1/CD66a protein Bulk (R&D systems; Cat. No. 2244-CM, HCCM1 (bulk)) and mouse CEACAM1/CD66a protein (Sino Biological; Cat. No. 50571-M08H, mouse CCM1) (2.5 μg each) were dissolved in 10 ml of PBS, respectively and dispensed into a 96-well plate (Nunc; Cat. No. 467679) at 100 μl/well, which was incubated overnight at 4° C. Thereafter, each well was treated with 300 μl of 1% (v/v) bovine serum albumin, which was incubated at 37° C. for 1 hour.
# The diluted antibodies were dispensed into each well coated with each protein at 100 μl/well, which was incubated at 37° C. for 1 hour. Then, each well was washed 3 times with a washing buffer prepared by diluting 10 μl of Tween 20 (Sigma-Aldrich; Cat. No. P9146) in 990 μl of PBS. Thereafter, 2 μl of HRP-conjugated human anti-IgG-Fab antibody (anti-human IgG Fab; Sigma; Cat. No. A0293) was diluted in 10 ml of PBS, added to the wells at 100 μl/well, and incubated for 1 hour.
# as §3
# T3 sequence (P02769 25-607 limits assumed): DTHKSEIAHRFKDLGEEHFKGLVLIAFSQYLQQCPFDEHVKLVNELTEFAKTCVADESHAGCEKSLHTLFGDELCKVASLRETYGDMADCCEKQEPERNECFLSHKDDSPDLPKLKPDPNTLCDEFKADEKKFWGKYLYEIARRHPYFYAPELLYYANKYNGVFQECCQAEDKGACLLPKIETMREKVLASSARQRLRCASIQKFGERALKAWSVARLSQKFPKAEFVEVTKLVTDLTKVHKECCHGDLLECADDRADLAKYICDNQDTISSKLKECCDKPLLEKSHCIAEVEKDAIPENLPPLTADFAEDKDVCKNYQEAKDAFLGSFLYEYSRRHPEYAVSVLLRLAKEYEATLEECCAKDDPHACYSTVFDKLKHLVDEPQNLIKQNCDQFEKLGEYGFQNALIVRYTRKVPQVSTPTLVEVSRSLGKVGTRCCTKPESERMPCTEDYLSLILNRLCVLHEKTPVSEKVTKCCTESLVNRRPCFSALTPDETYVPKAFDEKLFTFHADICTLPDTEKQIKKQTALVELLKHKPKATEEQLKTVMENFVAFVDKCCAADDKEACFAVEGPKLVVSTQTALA
# T4 sequence (chain, as listed by the source limits assumed): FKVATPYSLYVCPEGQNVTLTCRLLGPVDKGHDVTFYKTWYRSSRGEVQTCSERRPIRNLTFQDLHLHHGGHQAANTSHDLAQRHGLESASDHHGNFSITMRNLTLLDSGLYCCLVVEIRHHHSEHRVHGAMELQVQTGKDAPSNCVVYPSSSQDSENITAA
Kd [1],koff [1],kon [1],Binder,binding result (BSA),binding result (HVISTA),binding result (mCCM1)
25.7 nM,0.000321 s⁻¹,19000 M⁻¹ s⁻¹,"4R9_H4-n20HC+4R26LC (antibody, human IgG4 S228P, lambda, V domains shown) VH: EVQLLESGGGLVQPGGSLRLSCAASGFNFSNYAMSWVRQAPGKGLEWVSVISHGGGSIYYADSVKGRLTISRDNSKNTLYLQMNSLRAEDTAVYYCARDPTKGYAPTFDYWGQGTLVTVSS VL: QSVLTQPPSASGTPGQRVTISCSGSSSNIGNNYVSWYQQLPGTAPKLLIYADSKRLSGVPDRFSGSKSGTSASLAISGLRSEDEADYYCGAWDGRLNGYVFGGGTKLTVLG",,,
,,,"C16 (antibody, human IgG4 S228P, lambda, V domains shown) VH: EVQLLESGGGLVQPGGSLRLSCAASGFTFSNYSMSWVRQAPGKGLEWVSAISSDGGSKYYADSVKGRFTISRDNSKNTLYLQMNSLRAEDTAVYYCARDPRKHVDRYFDYWGQGTLVTVSS VL: QSVLTQPPSASGTPGQRVTISCSGSSSNIGSNTVSWYQQLPGTAPKLLIYADNNRPSGVPDRFSGSKSGTSASLAISGLRSEDEADYYCGTWDYSLSGYVLGGGTKLTVLG",no binding (tested: 3 µg/ml (single concentration)),no binding (tested: 3 µg/ml (single concentration)),no binding (tested: 3 µg/ml (single concentration))
